Measured values as given in patent publication US10597674B2, “HPPD variants and methods of use” (BASF Agricultural Solutions Seed, US LLC, priority 2015, dated 2020).
Numbering of substitutions follows the chain as printed. In names and notes the source's numbering stands.

What was measured:
soybean shoots = experiment: Soybean transformation, selection of shoots with tembotrione; format: in vivo; conditions: wild-type soybean shoots treated with selection marker
Excerpt: Soybean transformation was achieved by using methods well known in the art, such as the one described using the Agrobacterium tumefaciens mediated transformation soybean half-seed explants using essentially the method described by Paz et al. (2006), Plant cell Rep. 25:206. Transformants were identified by using the HPPD inhibitor herbicide “tembotrione” as selection marker. The appearance of green shoots was observed, and documented as an indicator of tolerance to the HPPD inhibitor herbicide tembotrione.

[1] = biological target: HPPD polypeptides (wild-type SEQ ID NO:1 and mutants) (Pseudomonas sp., UniProt P80064, A172V/A339V/A53E/D148E/D45N/E105D/E287Q/E300V/E334P/F143Y/G286D/G335H/H150N/H254A/H63N/I158V/I187A/I249V/I344V/K92N/L18F/N24G/N280D/N336S/P267G/S245T/S257K/S301E/T205S/T269E/V65I); conditions: compared with SEQ ID NO: 24; Table 3a and 3c
[2] = test system: E. coli cells expressing an HPPD polypeptide; experiment: Brown Color Assay on solid LB-agar, visual score of brown pigment; format: cell-based; conditions: 25, 50, 100, 250 and 500 μM Cmpd. 1
Summary of the method: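 E. coli expressing mutant HPPD, diluted to OD600 1, spotted in triplicate on LB-agar with 5 mM tyrosine, 42 mM succinate and 0, 25, 50, 100, 250 or 500 μM Cmpd. 1. Incubated 24 h at 30 °C, then kept dark at room temperature. Brown pigment scored visually at 7 days as ++, + or 0.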

[3] = test system: transgenic T1 soybean events; experiment: Field trials of T1 soybean events, leaf damage eight days after application; format: in vivo
Summary of the method: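 T1 soybean events carrying the HPPD inhibitor tolerant polypeptide, field-grown and sprayed with isoxaflutole 210 g/ha or Cmpd 150 g/ha. Leaf damage scored eight days after application; good tolerance defined as ≤15% damaged leaf area, reported as event frequency.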

[4] = biological target: HPPD polypeptides (wild-type SEQ ID NO:1 and mutants) (Pseudomonas sp., UniProt P80064, A172V/A339V/A53E/D148E/D329H/D45N/E105D/E287Q/E300V/E334P/F143Y/G286D/G335D/H150N/H254A/H63N/I158V/I187A/I249V/K92N/L18F/M263R/N24G/N280D/N336S/S245T/S257K/S301E/T205S/V65I); conditions: compared with SEQ ID NO:12; Tables 3a, 3b
[5] = biological target: HPPD polypeptides (wild-type SEQ ID NO:1 and mutants) (Pseudomonas sp., UniProt P80064, A172V/A339V/A53E/D148E/D45N/E105D/E287Q/E300V/E334P/F143Y/G286D/G335D/H150N/H254A/H63N/I158V/I187A/I249V/I344V/K92N/L18F/N24G/N280D/N336S/P267G/S245T/S257K/S301E/T205S/T269E/V65I); conditions: 50 μM Cmpd. 1, low substrate concentration
[6] = test system: HPPD polypeptides (wild-type SEQ ID NO:1 and mutants); conditions: 50 μM Cmpd. 1, low substrate concentration (Table 5)
[7] = test system: HPPD polypeptides (purified, wild-type SEQ ID NO:1 and mutants); experiment: Coupled HPPD activity assay: ki determination, competitive inhibition fit; format: biochemical, Pseudomonas fluorescens; conditions: inhibitor Cmpd. 1
Experimental: For the generation of purified HPPD polypeptide samples, cells were grown for 3 h at 37° C. in 5 ml LB medium containing 100 μg/ml ampicillin in a 50 ml shaker flask at 140 rpm. One ml of this starter culture was used as inoculum for the expression culture. […] At an OD600 of about 0.6, IPTG (Roth, Karlsruhe, Germany) was added to a concentration of 0.4 mM. After further growth for 60 min at 37° C., the temperature was reduced to 28° C. and growth continued for another 18 h at 140 rpm. Cells were harvested by centrifugation at 4° C., 3200 g for 30 min in 50 ml Falcon tubes and cell pellets were stored at −80° C. […]
The resulting protein samples were re-buffered into 20 mM Tris, 20% Glycerol (pH 7.8) (Sigma-Aldrich, St. Louis, USA) by use of Zeba™ Spin Desalting Columns, 7K MWCO, 10 mL (Thermo Fisher Scientific, Waltham, USA) and analysed for protein concentration and purity by Abs280 (NANODROP 8000, Thermo Fisher Scientific, Waltham, USA) and SDS-PAGE. […]
The mutant HPPD polypeptides represented here are examples by a way of illustration, not by a way of limitation. […] The inhibitor concentrations were adopted for the respective HPPD polypeptide/inhibitor pairs to generate dynamic data, i.e. variants with lower tolerance were analyzed in a range of lower inhibitor concentrations, and concentrations of up to 1200 μM were used for variants with maximized tolerance. […]

[8] = 150 g/ha Cmpd. 1, stage V2-V4, eight days after application
[9] = 210 g/ha isoxaflutole, stage V2-V4, eight days after application

Sequence of HPPD polypeptides (wild-type SEQ ID NO:1 and mutants) (Pseudomonas sp., UniProt P80064, A172V/A339V/A53E/D148E/D329H/D45N/E105D/E287Q/E300V/E334P/F143Y/G286D/G335D/H150N/H254A/H63N/I158V/I187A/I249V/K92N/L18F/M263R/N24G/N280D/N336S/S245T/S257K/S301E/T205S/V65I) (P80064 other isoform, or with tags, fused parts or gaps with the stated changes): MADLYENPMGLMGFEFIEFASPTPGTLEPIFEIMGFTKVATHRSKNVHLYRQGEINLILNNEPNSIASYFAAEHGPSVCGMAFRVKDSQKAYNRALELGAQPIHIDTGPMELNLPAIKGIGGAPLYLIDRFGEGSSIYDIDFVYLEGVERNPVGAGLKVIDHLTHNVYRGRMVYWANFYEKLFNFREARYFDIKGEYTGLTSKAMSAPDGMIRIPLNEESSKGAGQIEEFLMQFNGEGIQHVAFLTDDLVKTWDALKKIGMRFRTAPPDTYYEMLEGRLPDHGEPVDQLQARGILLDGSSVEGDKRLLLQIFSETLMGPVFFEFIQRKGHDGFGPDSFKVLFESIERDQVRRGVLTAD
Sequence of HPPD polypeptides (wild-type SEQ ID NO:1 and mutants) (Pseudomonas sp., UniProt P80064, A172V/A339V/A53E/D148E/D45N/E105D/E287Q/E300V/E334P/F143Y/G286D/G335D/H150N/H254A/H63N/I158V/I187A/I249V/I344V/K92N/L18F/N24G/N280D/N336S/P267G/S245T/S257K/S301E/T205S/T269E/V65I) (P80064 other isoform, or with tags, fused parts or gaps with the stated changes): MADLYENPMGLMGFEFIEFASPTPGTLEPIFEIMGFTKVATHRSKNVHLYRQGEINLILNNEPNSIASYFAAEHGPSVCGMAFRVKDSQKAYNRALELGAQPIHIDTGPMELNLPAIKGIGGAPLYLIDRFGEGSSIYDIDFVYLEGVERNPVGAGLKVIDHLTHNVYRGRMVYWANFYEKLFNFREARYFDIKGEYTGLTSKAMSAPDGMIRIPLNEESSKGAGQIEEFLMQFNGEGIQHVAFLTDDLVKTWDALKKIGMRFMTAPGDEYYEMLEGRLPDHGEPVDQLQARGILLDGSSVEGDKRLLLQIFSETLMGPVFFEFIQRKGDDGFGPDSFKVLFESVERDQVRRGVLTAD

## CS(=O)(=O)c1ccc(C(=O)C2C(=O)CCCC2=O)c(Cl)c1COCC(F)(F)F [tembotrione, 2-[2-chloro-4-(methylsulfonyl)-3-[(2,2,2,-trifluoroethoxy)methyl]benzoyl]-1,3-cyclohexanedione]
Soybean shoots
  appearance of shoots: entirely bleached

B1: SEQ ID NO:31 (protein)
chain: MADLYENPMGLMGFEFIEFASPTPGTLEPIFEIMGFTKVATHRSKNVHLYRQGEINLILNNEPNSIASYFAAEHGPSVCGMAFRVKDSQKAYNRALELGAQPIHIDTGPMELNLPAIKGIGGAPLYLIDRFGEGSSIYDIDFVYLEGVERNPVGAGLKVIDHLTHNVYRGRMVYWANFYEKLFNFREARYFDIKGEYTGLTSKAMSAPDGMIRIPLNEESSKGAGQIEEFLMQFNGEGIQHVAFLTDDLVKTWDALKKIGMRFMTAPGDEYYEMLEGRLPDHGEPVDQLQARGILLDGSSVEGDKRLLLQIFSETLMGPVFFEFIQRKGDDGFGPHSFKVLFESVERDQVRRGVLTAD
modifications: mutant HPPD polypeptide
[1]
  residual turnover in the presence of Cmpd. 1 and MST, in words: increase significantly
[2]
  brown coloring compared with SEQ ID NO: 2, in words: stronger brown coloring

B2: SEQ ID NO: 18: mutant HPPD polypeptide: M264R D330H E335P G336D N337S A340V (protein)
chain: B1 chain with M264R, G268P, E270T, D330H, H336D, V345I
modifications: mutant HPPD polypeptide
notes: mutant HPPD polypeptide: M264R D330H E335P G336D N337S A340V
[3]; [8]
  Frequency in the population (events with ≤15% leaf damage): 60%
  Independent events with ≤15% leaf damage after spray: 12
[3]; [9]
  Frequency in the population (events with ≤15% leaf damage): 60%
  Independent events with ≤15% leaf damage after spray: 12
[4]
  HPPD inhibitor tolerance towards Cmpd. 1 and Cmpd. 2, in words: further significant improved

B3: SEQ ID NO:17 (protein)
chain: B1 chain with H336D
modifications: mutant HPPD polypeptide
[5]
  reduction of substrate turnover: 46%
[6]
  Residual activity: 29%
[7]
  increase of ki towards Cmpd. 1 compared to SEQ ID NO:2: ~20 fold
